According to paper PMC6637015:

Experiments:
[1] = target: c-Abl SH2 domain, 127-217 (UniProt P00520); assay: GST-SH2 pull-down from cell lysate; conditions: reference: wild type; sites Y281
c-Abl [2] = target: c-Abl (UniProt P00520); assay: streptavidin precipitation of ligated FcRL1, c-Abl blot; conditions: reference: wild type; sites Y281
c-Abl [3] = target: c-Abl (UniProt P00520); assay: GSH-bead precipitation of co-expressed c-Abl–mCherry-GST; conditions: reference: wild type, sites Y281

## FcRL1 (Fc receptor-like 1) (from UniProt Q8R4Y0) Y281F
[1]
  binding against the reference: lost
c-Abl [2]
  binding against the reference: lost

## FcRL1 (Fc receptor-like 1) (from UniProt Q8R4Y0) Y281F, BCR ligation
c-Abl [3]; BCR ligation
  binding against the reference: lost

## FcRL1 (Fc receptor-like 1) (from UniProt Q8R4Y0) Y281F, FcRL1 ligation
c-Abl [3]; FcRL1 ligation
  binding against the reference: lost
